Measured values published in PMC3239194.

Columns and labels:
[1] = target: I-Bth0305I full-length enzyme containing a catalytically inactivating D222N mutation (Bacillus thuringiensis 0305ϕ8–36 bacteriophage); experiment: SEC
[2] = target: I-Bth0305I isolated catalytic domain containing a D196A mutation (Bacillus thuringiensis 0305ϕ8–36 bacteriophage); experiment: SEC

Row | Substance | stoichiometry N [1] | stoichiometry N [2]
1 | I-Bth0305I full-length enzyme containing a catalytically inactivating D222N mutation | 2 | –
2 | I-Bth0305I isolated catalytic domain containing a D196A mutation (domain or fragment) | – | 2
